The target in this series is UL9 protein (origin-binding protein/helicase) (UniProt P10193 P10193:1-851). The experiment in a line: EMSA; binding to Box I with attached ssDNA tails verified by gel mobility shift; substrate number not specified. Particulars: tags: none stated; baculovirus-infected Sf21 nuclear extract, 83 kDa; chain copies: 2 (homodimer on Box I, stated); label: 5'-32P on 44-mer; forked duplex with 18-nt 3' ssDNA tail and 10-nt 5' ssDNA tail.
Chain of UL9 protein (origin-binding protein/helicase) (P10193 whole entry, one chain of several): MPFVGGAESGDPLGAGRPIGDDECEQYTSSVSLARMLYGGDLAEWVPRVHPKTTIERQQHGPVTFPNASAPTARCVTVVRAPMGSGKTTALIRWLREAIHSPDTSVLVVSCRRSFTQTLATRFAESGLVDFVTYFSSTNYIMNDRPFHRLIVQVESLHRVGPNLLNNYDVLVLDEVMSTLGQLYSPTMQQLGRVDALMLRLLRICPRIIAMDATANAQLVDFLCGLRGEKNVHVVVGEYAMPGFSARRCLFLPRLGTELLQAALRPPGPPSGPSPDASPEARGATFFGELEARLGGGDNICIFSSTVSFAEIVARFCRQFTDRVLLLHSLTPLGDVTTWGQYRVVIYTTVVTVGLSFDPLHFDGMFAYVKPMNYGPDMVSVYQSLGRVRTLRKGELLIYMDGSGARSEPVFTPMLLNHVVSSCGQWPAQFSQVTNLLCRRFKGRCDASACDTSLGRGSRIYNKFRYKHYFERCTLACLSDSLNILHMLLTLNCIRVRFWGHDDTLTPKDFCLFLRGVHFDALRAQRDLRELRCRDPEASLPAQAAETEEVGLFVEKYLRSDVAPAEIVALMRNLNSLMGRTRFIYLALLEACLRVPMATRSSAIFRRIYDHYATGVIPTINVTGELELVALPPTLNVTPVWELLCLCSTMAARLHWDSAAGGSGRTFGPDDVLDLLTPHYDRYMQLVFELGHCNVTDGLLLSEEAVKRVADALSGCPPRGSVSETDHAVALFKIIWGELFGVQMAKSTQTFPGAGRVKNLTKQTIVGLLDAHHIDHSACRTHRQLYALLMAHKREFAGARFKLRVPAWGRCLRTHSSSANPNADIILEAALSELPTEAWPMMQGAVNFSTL

B1: Substrate I (18-nt 3' tail on first strand, 5' tail on second strand) (mixed)
DNA 1: CGCGAAGCGTTCGCACTTCGTCCCGCCTTCCTGCGCCTTCCTGT
DNA 2: CATGCTCGCAGCGGGACGAAGTGCGAACGCTTCGCG
Take B1: the binding result is listed as “binds”.
